Values quoted from earlier work in article PMC7962812.

Molecular target: Bax (Homo sapiens) (UniProt Q07812)
Sequence (Q07812 whole entry): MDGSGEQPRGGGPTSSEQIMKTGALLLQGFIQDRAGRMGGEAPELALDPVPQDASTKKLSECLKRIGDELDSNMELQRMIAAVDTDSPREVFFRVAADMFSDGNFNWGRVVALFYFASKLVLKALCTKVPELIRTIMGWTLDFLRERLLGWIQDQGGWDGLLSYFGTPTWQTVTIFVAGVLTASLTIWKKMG

Sequence of Bcl-2 (P10415 whole entry): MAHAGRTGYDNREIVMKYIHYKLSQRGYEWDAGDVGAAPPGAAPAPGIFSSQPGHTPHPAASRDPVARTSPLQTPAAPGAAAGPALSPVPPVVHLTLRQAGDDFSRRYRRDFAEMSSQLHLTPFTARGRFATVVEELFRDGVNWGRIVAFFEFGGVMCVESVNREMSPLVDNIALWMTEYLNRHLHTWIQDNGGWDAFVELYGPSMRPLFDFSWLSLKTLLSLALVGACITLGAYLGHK

For Bcl-2 (from UniProt P10415), which Kd is on record?
Its Kd is 35.8 nM.
